From US20230295310A1 (ABCELLERA BIOLOGICS, published 2023)
Positions count from the first letter of the chain named.

B1: mAb 130 (antibody, V domains shown)
VH: EVQLVESGGGLVKTGGSLRLSCVASGFSFKKAWMNWVRQAPGKGLEWVGRIKRNSDGGATDYAAPVKDRFTLSRDDSKNTLYLQMNSLKTEDTAVYYCTTLDSSSWYVGYYYMDVWGKGTTVTVSS
VL: DIHMTQSPSSVSASLGDRVTFTCRASQDINNWLAWYQQRPGKAPKLLIYTASSLQSGVPSRFSGSGSGTDFTLTISSLQPEDFATYYCQQAHSLPITFGQGTRLGIK
notes: VH and VL only
B2: mAb 120 (antibody, V domains shown)
VH: B1 VH with S55T, A59T, T60A, D68G, N79K, Y82F, W106Y
VL: B1 VL with H3Q, L15V, F21I, R39K, S76G, G105E
notes: VH and VL only
B3: mAb 112 (antibody, V domains shown)
VH: B1 VH with L18H, A59T, D68G, T71I
VL: B1 VL with H3Q, L15V, F21I, R39K, L46I, S53N, Y87F, G105E
notes: VH and VL only
B4: mAb 115 (antibody, V domains shown)
VH: B1 VH with L18H, A59T, D68G, T71I
VL: B1 VL with H3Q, L15V, F21I, R39K, L46I, S53N, Y87F, S93G, G105E
notes: VH and VL only
B5: mAb 155 (antibody, V domains shown)
VH: B1 VH with S55T, A59T, T60A, D68G, N79K, Y82F, W106Y
VL: B1 VL with H3Q, L15V, T20I, F21I, R39K, S76G, T97S, G105D
notes: VH and VL only
B6: mAb 164 (antibody, V domains shown)
VH: B1 VH with S55T, A59T, T60A, D68G, N79K, Y82F, W106Y
VL: B1 VL with H3Q, L15V, F21I, N30K, R39K, S76G, G105E
notes: VH and VL only
B7: mAb 157 (antibody, V domains shown)
VH: B1 VH with N54T, S55A, D68G
VL: B1 VL with S7A, L15V, R39K
notes: VH and VL only
B8: mAb 122 (antibody, V domains shown)
VH: B1 VH with S55T, A59T, T60A, D68G, N79K, W106R
VL: B1 VL with H3Q, L15V, T20I, F21I, R39K, A43V, S76G, G105E
notes: VH and VL only
B9: mAb 131 (antibody, V domains shown)
VH: B1 VH with L20I, S55T, A59T, T60I, D68G, T71S, Y82F, Y97F, W106Y
VL: B1 VL with L15V, F21I, R39K, Y87F
notes: VH and VL only
B10: mAb 156 (antibody, V domains shown)
VH: B1 VH with S55T, A59T, T60A, D68G, N79K, Y82F, W106Y
VL: B1 VL with H3Q, L15V, T20I, F21I, R39K, P40A, S76G, G105E
notes: VH and VL only
B11: mAb 169 (antibody, V domains shown)
VH: B1 VH with S55T, A59T, T60A, D68G, N79K, Y82F, W106Y
VL: B1 VL with H3Q, L15V, T20I, F21I, R39K, T72I, S76G, G105E
notes: VH and VL only
B12: mAb 165 (antibody, V domains shown)
VH: B1 VH with S55T, A59T, T60A, D68G, N79R, W106R
VL: B1 VL with H3Q, L15V, T20I, F21I, R39K, A43V, S76G, G105E
notes: VH and VL only
B13: mAb 125 (antibody, V domains shown)
VH: B1 VH with S55T, A59T, T60A, D68G, N79K, W106R
VL: B1 VL with H3Q, L15V, T20I, F21I, R39K, A43V, S76G, S77T, G105D
notes: VH and VL only
B14: mAb 166 (antibody, V domains shown)
VH: B1 VH with K43R, S55T, A59T, D68G, T80M, W106L
VL: B1 VL with H3Q, L15V, F21I, R39K, Y87F, G105E, K107T
notes: VH and VL only
B15: mAb 114 (antibody, V domains shown)
VH: B1 VH with S55T, A59P, T60A, D68G, N79K
VL: B1 VL with H3Q, L15V, T20I, F21I, Q37L, T50A, S76G, G105E, K107Q
notes: VH and VL only
B16: mAb 116 (antibody, V domains shown)
VH: B1 VH with A59T, D68G
VL: B1 VL with H3Q, S9F, L15V, F21I, R39K, L46I, G105E
notes: VH and VL only
B17: mAb 117 (antibody, V domains shown)
VH: B1 VH with S55T, A59T, D68G, W106L
VL: B1 VL with H3Q, L15V, F21I, R39K, G105E
notes: VH and VL only
B18: mAb 113 (antibody, V domains shown)
VH: B1 VH with S55T, A59T, D68G
VL: B1 VL with H3Q, L15V, F21I, R39K, L46I, G105E
notes: VH and VL only
B19: mAb 163 (antibody, V domains shown)
VH: B1 VH with A40V, S55T, A59T, T60A, D68G, N79K, Y82F, W106Y
VL: B1 VL with H3Q, L15V, T20I, F21I, R39K, S76G, G105E
notes: VH and VL only
B20: mAb 133 (antibody, V domains shown)
VH: B1 VH with N35S, S55T, A59T, T60A, D68G, N79K, Y82F, T93S, T99V, W106Y
VL: B1 VL with H3Q, L15V, T20S, F21I, R39K, S76G, G105E
notes: VH and VL only
B21: mAb 141 (antibody, V domains shown)
VH: QVQLVQSGAEVKKPGASVKVSCKASGYTFTSYYIHWVRQAPGQGLDWMGIINPSGGITGYAQKLQGRVTMTRDTSTTTVYMELSSLRSDDTAVYYCARGVRGNYYYYYMDVWGKGTTVTVSS
VL: EIVLTQSPDFQSVTPKEKVTITCRASQSIGSKLHWYQQKPDQSPKLLIKYASQSFSGVPSRFSGSGSGTDFNLTINSLEAEDAATFYCHQSSGLPYTFGQGTKLEIK
notes: VH and VL only
B22: mAb 137 (antibody, V domains shown)
VH: QVQLVESGGGVVQPGRSLRLSCAASGFTFSTYGMHWVRQAPGKGLEWVAVIWYDGSHKYYADSVKGRFTISRDNSKKTLYLQMNSLRAEDTGIYYCARTGISGNMSYFYFDHWGQGILVTVSS
VL: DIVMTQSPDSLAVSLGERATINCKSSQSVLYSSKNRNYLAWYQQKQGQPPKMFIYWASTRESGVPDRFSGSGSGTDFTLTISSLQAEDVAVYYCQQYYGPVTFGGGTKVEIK
notes: VH and VL only
B23: mAb 320 (antibody, V domains shown)
VH: QVQLVESGGGVVQPGRSLRLSCAASGFTFRSYGMHWVRQAPGKGLEWVAIIWYDGSKKYYADSVKGRFTISRDNSKNILYLQMNSLRAEDTAVYYCARQEFNWNDGGYYYMDVWGKGTTVTVSS
VL: DIQLTQSPSFLSASVGDRVTITCRASQGISSYLDWCQQKPGKAPKLLIYAASTLQSGVPSRFSGSGSGTEFTLTISSLQPEDFATYYCQQLDNYPPTFGGGTKVEIK
notes: VH and VL only
B24: mAb 67 (antibody, V domains shown)
VH: EVQLVESGGDLVQPGRSLRLSCAASGFTFDDCVIHWVRQAPGKGLEWVSGITWNSGRIGYADSVKGRFTISRDNAKNSLYLQMNSLRVEDTALYYCAKEGNYDFWSTYYRGYFDLWGRGTLVTVSS
VL: DIQMTQSPSSLSASVGDRVTITCRASQGIRNDLGWYQQKPGIAPKRLIYAASSLQGGVPLRFSGSGSGTEFTLTISSLQPEDFATYYCLQHNSYPYTFGQGTKLEIK
notes: VH and VL only
B25: mAb 73 (antibody, V domains shown)
VH: EVELVESGGGLVQPGRSLRLSCAASGFTFDDKVMHWVRQAPGKGLEWVSCINWNSGHIGYADSVKGRFTISRDNARTSLYLQMNSLRPEDTALYYCVREGNYDFWSGYYRGFFDLWGRGTLVTVSS
VL: B24 VL with I42K, L60S, N92T, Y96F
notes: VH and VL only
B26: mAb 71 (antibody, V domains shown)
VH: QVQLVQSGAEVRKPGASVKVSCKASGYTFTKYDVNWVRQAPGQGLEWMGWMNSNNGNIGYAQKFQGRVTMTRKTSISTAYMELSSLRSEDTAVYYCAREGHYDFWRGFYNFDYWGQGTLVTVSS
VL: B24 VL with G28D, R30K, I42K, G56S, L60S, S93F, Y96I, K103R
notes: VH and VL only
B27: mAb 74 (antibody, V domains shown)
VH: EVQLVESGGGLVQPGRSLRLSCAASGFTFADYVMHWVRQAPGKGLEWVSGINWNNARIGYVGSVKGRFTISRDNAKNSLYLQMTSLRVEDTALYHCVREGNFDFWSAYYRGFLDLWGRGTLVTVSS
VL: B24 VL with N31S, I42K, A50G, L60S
notes: VH and VL only
B28: mAb 46 (antibody, V domains shown)
VH: EGQLVESGGGLVQPGGSLRLSCVASGFTLSSYTLNWVRQAPGKGLEWVSYISSTSRTIYYSDSVKGRFTISRDNAKNSLYLQMNSLRDEDTALYYCAREDYYDSSGFDYWGQGTLVTVSS
VL: AIRMTQSPSSFSASTGDRVTITCRASQGISSYLAWYQQKPGKAPKLLIYTASTLQSGVPSRFSGSGSGTDFTLTIRSLQSEDFATYYCQQYYSYPRTFGQGTKVEIK
notes: VH and VL only
B29: mAb 51 (antibody, V domains shown)
VH: B28 VH with G2V, V23A, L34M, T54S, T69S, Y109N
VL: B28 VL
notes: VH and VL only

Legend:
human CD3e/d = biological target: T1, human CD3e/d (human, UniProt P07766 23-126; P04234 22-105); test: SPR (Carterra LSA), mAb on chip
T1 construct: Bought soluble protein; also called hCD3e/d; human CD3/ed (Sino CT038-H2508H)
Protocol: (§1) High-throughput surface plasmon resonance (SPR) coupled kinetic experiments were performed on a Carterra LSA® instrument equipped with an HC-30M chip type (Carterra, USA). The instrument uses two microfluidic modules, a single-flow cell (SFC) and a 96 printhead, to deliver samples to the chip surface via back-and-forth cycling of a fixed sample volume. An up to 384-ligand array is generated by docking the MFC onto each of the four nested print block locations in a serial manner.
(§2) The purified mAbs were immobilized on a Carterra LSA® HC-30M chip by direct coupling. The chip surface was first activated by flowing a freshly prepared 1:1:1 activation mix of 100 mM MES pH 5.5, 100 mM S-NHS, 400 mM EDC for 7 min. mAbs diluted to 10 μg/mL in 10 mM NaOAc pH 4.25+0.01% TWEEN®20 were then injected and printed onto the chip surface simultaneously using the MFC printhead for 10 min. Finally, the chip surface was quenched by flowing 1 M ethanolamine for 7 min (to block the excess reactive esters), followed by 2 wash steps of 15 s each in 25 mM MES pH 5.5. In addition to expressed and purified mAbs, relevant benchmarks and negative control mAbs were also printed on the chip surface.
(§3) The data were analyzed using the Carterra Kinetics analysis software. Briefly, the data were referenced with the interstitial reference spots and double-referenced to a buffer cycle, and then fit globally to a 1:1 Langmuir binding model to determine their apparent association (ka) and dissociation (kd) kinetic rate constants and binding affinity constants (KD).

human CD3e/g = biological target: T2, human CD3e/g (human, UniProt P07766 23-126; P09693 23-116); test: SPR (Carterra LSA), mAb on chip
T2 construct: Bought soluble protein; also called hCD3e/g; human CD3e/g (Acro CDD-C52W4)
Protocol: as §1, §2, §3

T1 sequence (P07766 23-126, chain 1 of 2): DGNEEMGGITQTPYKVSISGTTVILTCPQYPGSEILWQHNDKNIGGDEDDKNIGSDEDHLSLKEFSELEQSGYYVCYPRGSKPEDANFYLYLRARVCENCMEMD
T1 sequence (P04234 22-105, chain 2 of 2): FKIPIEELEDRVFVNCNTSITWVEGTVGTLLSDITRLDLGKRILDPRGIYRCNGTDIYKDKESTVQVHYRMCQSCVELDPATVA
T2 sequence (P07766 23-126, chain 1 of 2): as the sequence (P07766 23-126, chain 1 of 2) above
T2 sequence (P09693 23-116, chain 2 of 2): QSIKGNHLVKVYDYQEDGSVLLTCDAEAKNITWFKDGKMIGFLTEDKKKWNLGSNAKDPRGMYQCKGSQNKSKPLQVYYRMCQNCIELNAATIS

| Binder | Kd (human CD3e/d) | Kd (human CD3e/g) |
| --- | --- | --- |
| B1 | 21.7 nM | 6.07 nM |
| B2 | 44.4 nM | 12.1 nM |
| B3 | 56.9 nM | 14.8 nM |
| B4 | 63.8 nM | 15.7 nM |
| B5 | 46.2 nM | 7.07 nM |
| B6 | 77 nM | 15 nM |
| B7 | 53.1 nM | 12.2 nM |
| B8 | 34.2 nM | 13 nM |
| B9 | 32.1 nM | 7.45 nM |
| B10 | 47.7 nM | 7 nM |
| B11 | 73.8 nM | 12.6 nM |
| B12 | 40.4 nM | 10.6 nM |
| B13 | 36 nM | 13.8 nM |
| B14 | 47.3 nM | 12.5 nM |
| B15 | 65.8 nM | 18.9 nM |
| B16 | 104 nM | 24.1 nM |
| B17 | 40.6 nM | 9.84 nM |
| B18 | 107 nM | 28.8 nM |
| B19 | 42 nM | 8.63 nM |
| B20 | 27.2 nM | 6.64 nM |
| B21 | 92.1 nM | 26 nM |
| B22 | 181 nM | 950 nM |
| B23 | – | 0.69 nM |
| B24 | – | 18.6 nM |
| B25 | – | 16.2 nM |
| B26 | – | 113 nM |
| B27 | – | 9.83 nM |
| B28 | 240 nM | 98.4 nM |
| B29 | 351 nM | 171 nM |
